Positions count from the first letter of the chain named. Read-outs that look alike come from different tables or passages of the source. Blank lines part the entries; values can stand above or below the binder they belong to.
How the values were obtained:
[1] = molecular target: T1, human VISTA (ECD)-his (Sino Biological, Cat #:13482-H08H) (human, UniProt Q9H7M9 33-194); assay: ELISA, plate coated with human VISTA (ECD)-his, OD450 [panel A]
T1 construct: extracellular domain; Bought protein; also called hVISTA(ECD)-his; recombinant human VISTA(ECD)-his; not shown: his tag
T1 sequence (looked up): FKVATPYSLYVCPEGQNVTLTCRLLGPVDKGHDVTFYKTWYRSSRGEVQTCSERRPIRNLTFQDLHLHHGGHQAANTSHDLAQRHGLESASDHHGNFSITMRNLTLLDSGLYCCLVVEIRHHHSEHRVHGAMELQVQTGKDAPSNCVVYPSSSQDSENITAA

[2] = molecular target: T2, monkey VISTA (ECD)-his (Sino Biological, Cat #: 90801-K08H) (cynomolgus monkey); assay: ELISA, plate coated with monkey VISTA (ECD)-his, OD450 [panel B]
T2 construct: extracellular domain; Bought protein; also called cynoVISTA(ECD)-his; cynomolgus VISTA (ECD)-his

[3] = molecular target: T2, monkey VISTA (ECD)-his (Sino …); assay: SPR (BIAcore 8K), monkey VISTA (ECD)-his coupled to the chip, antibody injected
Method: (§1) They were also tested in SPR assays for their binding affinities to human and monkey VISTA with the BIAcore™ 8K instrument (GE Life Sciences). Briefly, 100-200 response units (RU) of human VISTA (ECD)-his protein (Sino Biological, CN, Cat #:13482-H08H) or monkey VISTA (ECD)-his protein (Sino Biological, CN, Cat #:90801-K08H) were coupled to CM5 biosensor chips (Cat #: BR-1005-30, GE Life Sciences), followed by blocking of un-reacted groups with 1M ethanolamine. Serially diluted antibodies at concentrations ranging from 0.3 µM to 10 µM were injected into the SPR running buffer (HBS-EP buffer, pH7.4, GE Life Sciences; US; Cat #:BR-1006-69) at 30 µL/minute. The binding capacitities were calculated with the RUs of blank controls subtracted. The association rate (k_a) and dissociation rate (k_d) were calculated using the one-to-one Langmuir binding model (BIA Evaluation Software, GE Life Sciences). The equilibrium dissociation constant K_D was calculated as the k_d/k_a ratio.

[4] = molecular target: T1, human VISTA (ECD)-his (Sino Biological, …); assay: SPR (BIAcore 8K), human VISTA (ECD)-his coupled to the chip, antibody injected
Method: as §1

[5] = molecular target: T1, human VISTA (ECD)-his (Sino Biological, …); assay: ELISA, plate coated with human VISTA (ECD)-his, OD450 [panel A]; remark: listed apart in the source
[6] = molecular target: T2, monkey VISTA (ECD)-his (Sino …); assay: ELISA, plate coated with monkey VISTA (ECD)-his, OD450 [panel B]; remark: listed apart in the source
[7] = molecular target: T3, mouse VISTA-his (Sino Biological, Cat #:511550-M08H) (mouse, UniProt Q9D659 33-191); assay: ELISA, plate coated with mouse VISTA-his, OD450 [panel C]
T3 construct: extracellular domain; Bought protein; also called muVISTA-his; mouse VISTA (ECD)-his; not shown: his tag
T3 sequence (looked up): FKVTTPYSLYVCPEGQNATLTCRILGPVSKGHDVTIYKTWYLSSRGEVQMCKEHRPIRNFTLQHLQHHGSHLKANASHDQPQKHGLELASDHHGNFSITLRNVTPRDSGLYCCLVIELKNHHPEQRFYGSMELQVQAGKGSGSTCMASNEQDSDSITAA

[8] = molecular target: T4, mouse VISTA expressed on HEK293A cells (mouse, UniProt Q9D659 33-308); assay: FACS on HEK293A/mouse VISTA cells, MFI [panel C]
T4 construct: also called HEK293A/mouseVISTA; HEK293A/mouse VISTA
T4 sequence: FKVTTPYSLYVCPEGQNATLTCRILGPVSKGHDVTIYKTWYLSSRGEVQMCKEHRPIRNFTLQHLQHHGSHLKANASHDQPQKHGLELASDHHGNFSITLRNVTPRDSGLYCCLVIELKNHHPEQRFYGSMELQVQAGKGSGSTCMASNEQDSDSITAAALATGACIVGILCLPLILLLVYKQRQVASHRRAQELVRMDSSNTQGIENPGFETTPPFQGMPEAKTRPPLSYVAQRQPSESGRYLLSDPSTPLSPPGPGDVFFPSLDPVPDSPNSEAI

B1: 161E5-VH2VL2 (antibody, human IgG1, kappa, V domains shown)
VH: QVQLVQSGAEVKKPGASVKVSCKASGYSFTDYYINWVRQAPGQGLEWIARIFPGSGNAYYNEKFKDRATLTVDKSTSTAYMELSSLRSEDTAVYYCARDDSFYGYWYFDVWGQGTTVTVSS
VL: NIMMTQSPATLSVSPGERATLSCKSSQSVLYSSNQKNYLAWYQQKPGQAPRLLIYWASTRESGVPDRFSGSGSGTEFTLTISSLQSEDFAVYYCHQYLSSYTFGGGTKVEIKR
notes: One of the 5 humanized 161E5 antibodies, human IgG1/kappa; also called humanized antibody 161E5-VH2VL2
- EC50 (read off the curve) [1]: ~0.03 µg/mL
- EC50 (read off the curve) [2]: ~0.03 µg/mL

B5: 161E5-VH2VL3 (antibody, human IgG1, kappa, V domains shown)
VH: B1 VH
VL: B1 VL with A49S
notes: One of the 5 humanized 161E5 antibodies, human IgG1/kappa; also called humanized antibody 161E5VH2VL3
- EC50 (read off the curve) [1]: ~0.03 µg/mL
- EC50 (read off the curve) [2]: ~0.03 µg/mL
- Kd [3]: 0.0145 nM
- Kd [4]: 0.00236 nM

B6: chimeric 161E5 antibody (antibody, human IgG1, kappa, V domains shown)
VH: QVQLKQSGAELVRPGASVKLSCKASGYSFTDYYINWVKQRPGQGLEWIARIFPGSGNAYYNEKFKDKATLTVEKSSSAAYMQLSSLTSEDSAVYFCARDDSFYGYWYFDVWGTGTTVTVSS
VL: NIMMTQSPSSLAVSAGEKVTMSCKSSQSVLYSSNQKNYLAWYQQKPGQSPKLLIYWASTRESGVPDRFTGSGSGTDFTLTISSVQAEDLAVYYCHQYLSSYTFGGGTKLEIKR
- EC50 (read off the curve) [1]: ~0.03 µg/mL
- EC50 (read off the curve) [2]: ~0.03 µg/mL
- EC50 (read off the curve) [5]: ~0.02 µg/mL
- EC50 (read off the curve) [6]: ~0.03 µg/mL
- binding result [7]: no binding (tested: about log 4.3 ng/ml (about 20000 ng/ml))
- binding result [8]: no binding (tested: log 4 ng/ml (10000 ng/ml))
- Kd [4]: 0.0139 nM

Next, values leading:

- EC50 (read off the curve) [1]: ~0.03 µg/mL
- EC50 (read off the curve) [2]: ~0.03 µg/mL
- Kd [3]: 0.0399 nM
- Kd [4]: 0.0226 nM
B2: 161E5-VH3VL3 (antibody, human IgG1, kappa, V domains shown)
VH: B1 VH with A40R, Y95F
VL: B1 VL with A49S
notes: One of the 5 humanized 161E5 antibodies, human IgG1/kappa; also called humanized antibody 161E5VH3VL3

- EC50 (read off the curve) [1]: ~0.03 µg/mL
- EC50 (read off the curve) [2]: ~0.03 µg/mL
B3: 161E5-VH0VL0 (antibody, human IgG1, kappa, V domains shown)
VH: B1 VH with I48M, A49G, A68V, L70M, V72R, K74T, A79V
VL: B1 VL with N1E, M3V, V64I, D66A
notes: One of the 5 humanized 161E5 antibodies, human IgG1/kappa; also called humanized antibody 161E5-VH0VL0

- EC50 (read off the curve) [1]: ~0.03 µg/mL
- EC50 (read off the curve) [2]: ~0.03 µg/mL
B4: 161E5-VH3VL2 (antibody, human IgG1, kappa, V domains shown)
VH: B1 VH with A40R, Y95F
VL: B1 VL
notes: One of the 5 humanized 161E5 antibodies, human IgG1/kappa; also called humanized antibody 161E5-VH3VL2
